By Kd is commonly meant the free concentration of one partner at which half of the binding sites on the other are occupied at equilibrium, for simple one-to-one binding. A word on the stoichiometry N: it is the number of molecules, sites or subunits per partner or assembly.

Assay [1] addresses FAT domain of human Pyk2 (residues 871-1005) (Homo sapiens, UniProt Q14289). The assay can be described thus: ITC of leupaxin LD peptides and leupaxin^1-105 binding to Pyk2-FAT.
The next assay has as its system Pyk2-FAT. The assay can be described thus: NMR titration / chemical shift perturbation of 15N-labeled Pyk2-FAT. It is filed as binding, human.
The target in the next assay is Pyk2-FAT-LD1 (Homo sapiens, UniProt Q14289). The following applies: X-ray, 2.0 Å (4XEV); 0.5 mM protein, 2 mM leupaxin-LD4 peptide.
For another assay, the system named is Pyk2-FAT domain. The following applies: ref [36]; cited from earlier work.
The target of assay [2] is paxillin LD4 LD4 motif peptide (Homo sapiens) (UniProt P49023). Particulars: cited from earlier work.
For assay [3] the target is unchanged. The following applies: cited from earlier work. The source holds these as a separate data set.
The target in assay [4] is Paxillin LD4 peptide LD4 (Homo sapiens) (UniProt P49023). Particulars: cited from earlier work.
The target is the same in assay [5]. The following applies: cited from earlier work. This is another data set of the same source.
Assay [6] concerns the target T1, FAT domain of human Pyk2 (residues 871-1005) (human, UniProt Q14289 871-1005). The assay can be described thus: SEC-MALS.
In assay [7] the target is T1, FAT domain of human Pyk2 (residues …). The assay can be described thus: ITC.
Assay [8] shares this target. Nature of the assay: ITC. The source holds these as a separate data set. Background: Isothermal titration calorimetry measures the heat released or taken up as one component is titrated into another.
Where [9] appears, read: ITC, 20 mM MES, pH 6.2, 15°C, two-site sequential model, first site, duplicate.
[10] abbreviates: ITC, 20 mM MES, pH 6.2, 15°C, two-site sequential model, second site, duplicate.

Read-outs that look alike come from different tables or passages of the source. Where no end group is shown, it is not given here.

Paxillin LD4 peptide LD4 (Homo sapiens), sequence (P49023 263-282): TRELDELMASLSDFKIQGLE

Regarding KTSAAAQLDELMAHLTEMQ [leupaxin-LD4], the “Stoichiometry of binding (peptide to Pyk2-FAT)” value in assay [1] (ITC, 20 mM MES, pH 6.2, 15°C) fell in the range of 2 to 1 stoichiometry. For the same molecule, in assay [1] (setting [9]), the “ΔG, first site” value is -7.6 ± 0.3 kcal/mol; the “ΔH, first site” value is -3.0 ± 0.2 kcal/mol; the “−T.ΔS, first site” value is -4.6 ± 0.6 kcal/mol. In [1] (setting [10]), the “ΔG, second site” value is -6.0 ± 0.1 kcal/mol; the “ΔH, second site” value stood at 0.5 ± 0.3 kcal/mol; the “−T.ΔS, second site” value was -6.5 ± 0.4 kcal/mol. Besides, the “Higher affinity at the preferred Pyk2-FAT binding site” value in assay [1] (ratio of the two site KDs (LD1 prefers H1/H4, LD4 prefers H2/H3)) is reported as approximately 19 fold. Also, the “CSP differences between leupaxin-LD1 and leupaxin-LD4” value in the assay on Pyk2-FAT (4 equivalents peptide, 15N-labeled Pyk2-FAT, 20 mM MES, pH 6.2, 305K) is “residues Arg 918 and Ala 951 from H2/H3 show a high magnitude of CSP”. Also, the “NMR site preference on Pyk2-FAT” value in the assay on Pyk2-FAT (NMR titrations, LD1 for H1/H4, LD4 for H2/H3, respectively) is “strong preference for H1/H4 and H2/H3 sites of Pyk2-FAT, respectively”. For the same molecule, the “Binding site in crystal structure with Pyk2-FAT-LD1” value on Pyk2-FAT-LD1 was “binds at the H2/H3 site”. In the assay with Pyk2-FAT domain, the “Binding behaviour with Pyk2-FAT (in words)” value is on record as “compete equally for H2/H3”.
With “Pyk2 FAT (871-1005), H1/H4 site (from UniProt Q14289)”, the Kd in assay [2] was 46.3 µM.
With “Pyk2 FAT (871-1005), H2/H3 site (from UniProt Q14289)”, in [3], the Kd was 8 µM.
On to “Pyk2 FAT H1/H4 site (from UniProt Q14289)”, for which the Kd in assay [4] was 46.3 µM.
Regarding “Pyk2 FAT H2/H3 site (from UniProt Q14289)”, in assay [5], the Kd was 8 µM.

B1: leupaxin^1-151 (human leupaxin; residues 1-151) (domain or fragment, UniProt O60711 1-151, looked up)
chain: MEELDALLEELERSTLQDSDEYSNPAPLPLDQHSRKETNLDETSEILSIQDNTSPLPAQLVYTTNIQELNVYSEAQEPKESPPPSKTSAAAQLDELMAHLTEMQAKVAVRADAGKKHLPDKQDHKASLDSMLGGLEQELQDLGIATVPKGH
Turning to B1, the “stoichiometry N” value in [6] was found to be 1.
KTSAAAQLDELMAHLTEMQ (peptide, UniProt O60711 86-104, looked up) [leupaxin-LD4 peptide (human leupaxin; residues 86-104)]: in assay [7], the KD first site was found to be 2.2 ± 1 µM, the KD second site is 33 ± 7.2 µM, the dH first site is -3 ± 0.2 kcal/mol and the dH second site was found to be 0.5 ± 0.3 kcal/mol.

B2: leupaxin^1-105 (human leupaxin; residues 1-105) (domain or fragment, UniProt O60711 1-105, looked up)
chain: MEELDALLEELERSTLQDSDEYSNPAPLPLDQHSRKETNLDETSEILSIQDNTSPLPAQLVYTTNIQELNVYSEAQEPKESPPPSKTSAAAQLDELMAHLTEMQA
On to B2, for which, in assay [8], binding was put at a Kd of 0.6 ± 0.2 µM, the dH is -2.5 ± 0.5 kcal/mol and the “stoichiometry N” value was found to be 1.
In assay [7], MEELDALLEELERSTLQDSD (peptide, UniProt O60711 1-20, looked up) [leupaxin-LD1 peptide (human leupaxin; residues 1-20)] yielded a dH first site of -2 ± 0.2 kcal/mol and a dH second site of 1.6 ± 0.3 kcal/mol.

The values above are taken from paper PMC4843776 (Biochemistry, 2016).
